Results published in patent publication US20250216381A1 (published 2025).

T1: ARHGEF16 R150W peptide on HLA-DRA*01:01 / HLA-DRB1*11:01 (human)
T1 peptide: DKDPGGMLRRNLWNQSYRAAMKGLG

T2: HELZ2 P775A peptide on HLA-DPA1*01:03 / HLA-DPB1*104:01 (human)
T2 peptide: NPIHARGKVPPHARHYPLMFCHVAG

T3: HELZ2 P775A peptide on HLA-DPA1*03:01 / HLA-DPB1*104:01 (human)
T3 peptide: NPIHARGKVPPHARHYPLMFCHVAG

T4: ERGIC2 L176P peptide on HLA-A*03:01 (human)
T4 peptide: RIHGHPYVNK


Experiments:
Assay in all cases: activation reporter or marker
[1] = target: T1, ARHGEF16 R150W peptide on HLA-DRA*01:01 …
[2] = target: T2, HELZ2 P775A peptide on HLA-DPA1*01:03 / …
[3] = target: T3, HELZ2 P775A peptide on HLA-DPA1*03:01 / …
[4] = target: T4, ERGIC2 L176P peptide on HLA-A*03:01

Row | binding result [1] | Binder | also measured
1 | recognises | 8434-TCR21 (TCR, V domains shown) Valpha: KQEVTQIPAALSVPEGENLVLNCSFTDSAIYNLQWFRQDPGKGLTSLLLIQSSQREQTSGRLNASLDKSSGRSTLYIAASQPGDSATYLCAVRRDGTASKLTFGTGTRLQVTL Vbeta: AVVSQHPSWVICKSGTSVKIECRSLDFQATTMFWYRQFPKQSLMLMATSNEGSKATYEQGVEKDKFLINHASLTLSTLTVTSAHPEDSSFYICSASFPGRGNEQFFGPGTRLTVL | 
2 |  | 6932-TCR5 (TCR, V domains shown) Valpha: RKEVEQDPGPFNVPEGATVAFNCTYSNSASQSFFWYRQDCRKEPKLLMSVYSSGNEDGRFTAQLNRASQYISLLIRDSKLSDSATYLCVVKNQGGKLIFGQGTELSVKP Vbeta: GVTQTPRYLIKTRGQQVTLSCSPISGHRSVSWYQQTPGQGLQFLFEYFSETQRNKGNFPGRFSGRQFSNSRSEMNVSTLELGDSALYLCASILGGGRGDTQYFGPGTRLTVL | binding result [2]: recognises; binding result [3]: recognises
3 | recognises | 8434-TCR23 (TCR, V domains shown) Valpha: QQQVKQSPQSLIVQKGGISIINCAYENTAFDYFPWYQQFPGKGPALLIAIRPDVSEKKEGRFTISFNKSAKQFSLHIMDSQPGDSATYFCAASRASGGSYIPTFGRGTSLIVHP Vbeta: GITQSPKYLFRKEGQNVTLSCEQNLNHDAMYWYRQDPGQGLRLIYYSQIVNDFQKGDIAEGYSVSREKKESFPLTVTSAQKNPTAFYLCATKILAGANTGELFFGEGSRLTVL | 
4 | recognises | 8434-TCR20 (TCR, V domains shown) Valpha: KQEVTQIPAALSVPEGENLVLNCSFTDSAIYNLQWFRQDPGKGLTSLLLIQSSQREQTSGRLNASLDKSSGRSTLYIAASQPGDSATYLCAVRHSGNTPLVFGKGTRLSVIA Vbeta: AVVSQHPSRVICKSGTSVKIECRSLDFQATTMFWYRQFPKQSLMLMATSNEGSKATYEQGVEKDKFLINHASLTLSTLTVTSAHPEDSSFYICSASGGGRTEAFFGQGTRLTVV | 
5 |  | 2599-TCR12 (TCR, V domains shown) Valpha: EDKVVQSPLSLVVHEGDTVTLNCSYEVTNFRSLLWYKQEKKAPTFLFMLTSSGIEKKSGRLSSILDKKELFSILNITATQTGDSAIYLCGGLNAGGTSYGKLTFGQGTILTVHP Vbeta: EPEVTQTPSHQVTQMGQEVILRCVPISNHLYFYWYRQILGQKVEFLVSFYNNEISEKSEIFDDQFSVERPDGSNFTLKIRSTKLEDSAMYFCASLGASTYEQYFGPGTRLTVT | binding result [4]: recognises
